The chains are these.
B1: TLNEKLTAL (SEQ ID NO: 65) (peptide)
peptide: TLNEKLTAL
B2: LLDENGVLKL (SEQ ID NO: 48) (peptide)
peptide: LLDENGVLKL
B3: ALLTGIISKA (SEQ ID NO: 5) (peptide)
peptide: ALLTGIISKA
B4: LLWDPSTGKQV (SEQ ID NO: 53) (peptide)
peptide: LLWDPSTGKQV
B5: SMYDGLLQA (SEQ ID NO: 61) (peptide)
peptide: SMYDGLLQA
B6: SVFPGARLL (SEQ ID NO: 62) (peptide)
peptide: SVFPGARLL
B7: LLGPAGARA (SEQ ID NO: 51) (peptide)
peptide: LLGPAGARA
B8: RLSELGITQA (SEQ ID NO: 57) (peptide)
peptide: RLSELGITQA
B9: LTQPGPIASA (SEQ ID NO: 54) (peptide)
peptide: LTQPGPIASA
B10: LIYKDLVSV (SEQ ID NO: 47) (peptide)
peptide: LIYKDLVSV
B11: SLWEDYPHV (SEQ ID NO: 60) (peptide)
peptide: SLWEDYPHV
B12: RQYPWGVVQV (SEQ ID NO: 58) (peptide)
peptide: RQYPWGVVQV
B13: LLSDPIPEV (SEQ ID NO: 52) (peptide)
peptide: LLSDPIPEV
B14: NLIGVTAEL (SEQ ID NO: 56) (peptide)
peptide: NLIGVTAEL
B15: GLLAGNEKLTM (SEQ ID NO: 41) (peptide)
peptide: GLLAGNEKLTM
B16: ILYSDDGQKWTV (SEQ ID NO: 45) (peptide)
peptide: ILYSDDGQKWTV
B17: LLDGFPRTV (SEQ ID NO: 49) (peptide)
peptide: LLDGFPRTV
B18: LLFGSDGYYV (SEQ ID NO: 50) (peptide)
peptide: LLFGSDGYYV
B19: ILSDMRSQYEV (SEQ ID NO: 42) (peptide)
peptide: ILSDMRSQYEV
B20: TMVEHNYYV (SEQ ID NO: 46) (peptide)
peptide: TMVEHNYYV
B21: SLSESFFMV (SEQ ID NO: 59) (peptide)
peptide: SLSESFFMV
B22: ILAQVGFSV (SEQ ID NO: 44) (peptide)
peptide: ILAQVGFSV
B23: HLGVKVFSV (SEQ ID NO: 43) (peptide)
peptide: HLGVKVFSV
B24: NLAPAPLNA (SEQ ID NO: 55) (peptide)
peptide: NLAPAPLNA
B25: SVTGIIVGV (SEQ ID NO: 63) (peptide)
peptide: SVTGIIVGV
B26: TLFSEPKFAQV (SEQ ID NO: 64) (peptide)
peptide: TLFSEPKFAQV
B27: ALTGIPLPLI (SEQ ID NO: 6) (peptide)
peptide: ALTGIPLPLI

The assay addresses T1, HLA-A*02:01 (human).
T1 construct: the tested peptide takes its place; also called peptide-receptive MHC molecules; MHC class I
Description: UV-ligand exchange, anti-β2m ELISA; grade of peptide exchange yield. The source says:
Candidate peptides for T cell based therapies according to the present invention were further tested for their MHC binding capacity (affinity). The individual peptide-MHC complexes were produced by UV-ligand exchange, where a UV-sensitive peptide is cleaved upon UV-irradiation, and exchanged with the peptide of interest as analyzed. Only peptide candidates that can effectively bind and stabilize the peptide-receptive MHC molecules prevent dissociation of the MHC complexes. To determine the yield of the exchange reaction, an ELISA was performed based on the detection of the light chain (β2m) of stabilized MHC complexes. The assay was performed as generally described in Rodenko et al. (Rodenko et al., 2006).
96 well MAXISorp plates (NUNC) were coated over night with 2 ug/ml streptavidin in PBS at room temperature, washed 4× and blocked for 1h at 37° C. in 2% BSA containing blocking buffer. Refolded HLA-A*02:01/MLA-001 monomers served as standards, covering the range of 15-500 ng/ml. Peptide-MHC monomers of the UV-exchange reaction were diluted 100 fold in blocking buffer. Samples were incubated for 1 h at 37° C., washed four times, incubated with 2 ug/ml HRP conjugated anti-β2m for 1h at 37° C., washed again and detected with TMB solution that is stopped with […]. Absorption was measured at 450 nm. Candidate peptides that show a high exchange yield (preferably higher than 50%, most preferred higher than 75%) are generally preferred for a generation and production of antibodies or fragments thereof, and/or T cell receptors or fragments thereof, as they show sufficient avidity to the MHC molecules and prevent dissociation of the MHC complexes.
A general note: ELISA stands for enzyme-linked immunosorbent assay.
In turn, B1 returned a peptide exchange yield of 50 to 75%. Under B2 stands 50 to 75%.

In the case of B3, the peptide exchange yield lay in the range of 50 to 75%. In turn, B4 displayed a peptide exchange yield of 50 to 75%. Under B5 stands 20 to 50%; under B6, 10 to 20%. Under B7 stands 20 to 50%.

Molecule B8 had a peptide exchange yield of 50 to 75%.

In the case of B9, the peptide exchange yield was 50 to 75%. Under B10 stands 50 to 75%. With B11 the figure was ≥ 75%; with B12, 20 to 50%; with B13, 50 to 75%. Regarding B14, the peptide exchange yield lay within 20 to 50%. B15 had a peptide exchange yield of 20 to 50%.

Molecule B16 came in with a peptide exchange yield of 50 to 75%. With B17 the figure was 20 to 50%; with B18, 50 to 75%. Under B19 stands 50 to 75%. With B20 the figure was 50 to 75%. With B21, the peptide exchange yield lay within 50 to 75%. Under B22 stands 50 to 75%; under B23, 20 to 50%; under B24, 20 to 50%. Under B25 stands ≥ 75%. Under B26 stands ≥ 75%. Turning to B27, the peptide exchange yield was 50 to 75%.
